Measurements from patent publication US20260069707A1, “COMBINATION THERAPY WITH ANTIBODY-DRUG CONJUGATES AND HYALURONIDASES” (HALOZYME, INC., priority 2024, published 2026).

Assays:
[1] = Post-injection bleb volume, area, height - caliper measurement; type: in vivo, Yucatan miniature pig (Sus scrofa domestica)
Protocol: The needle was inserted vertically into the marked injection site and the HVAI held in place by hand. Target needle insertion depth was ˜10 mm. Injections were timed using a stopwatch. Upon completion of the injection the needle was removed and the HVAI device discarded. Test solution back-leakage was then absorbed to a tared eye-spear for 30 seconds on the injection site and the weight of the eye spear was measured using an analytical balance. The margins of the injection site bleb were marked with a permanent marker and measured for length, width, and height using a digital caliper and recorded then photographed with the standard and 3D cameras. Caliper measurements and photographs were taken immediately post-injection. Local injection sites were qualitatively assessed and graded daily for erythema severity, swelling size appearance, and firmness, using a scoring system described in Table 4 Table 5, and Table 6, respectively.
Assessment of Local Swelling Volume and Area Using Caliper Measurement and 3D Imaging. Volume and area of post-injection swelling were measured using both caliper measurement and 3D camera image analysis. For caliper measurements a digital caliper was utilized to measure length, width and height of the bleb that formed post-injection. The length and width are defined as the edge to edge measurements of the bleb (i.e., diameter) along their longest axes. These values were manually recorded, and the volume determined using the formula for half of an ellipsoid Vol=(⅔)*π*A*B*C where A=Length/2, B=Width/2 and C=Height.
Assessment of Post-Injection Bleb Volume, Area and Height (Caliper Measurements). The local injection site swelling (bleb) was marked and measured using a digital caliper.

[2] = Post-injection bleb volume, area, height - 3D imaging; type: in vivo, Yucatan miniature pig (Sus scrofa domestica); conditions: minipig, 10 mL SC by HVAI, T0; n=3 alone, n=2 with rHuPH20
Protocol: 3D imaging was applied as a longitudinal methodology to measure post-injection swelling. By obtaining high definition pre- and post-injection 3D images the distances between two registered surfaces can be determined. The camera captures images using a factory calibrated bifocal imaging system to measure distance between surfaces. Surface registration was performed using a multipoint method that utilized common landmarks between the pre-injection image and the post-injection image. Using the proprietary software, the volume, area and height of the post-injection swelling was calculated for each injection (Canfield Biosciences, Inc.).
Assessment of Post-Injection Bleb Shape, Volume, Area and Height (3D Imaging). Pre- and post-injection photographs were taken using a 3D imaging system (Canfield Scientific). This technology permits point-to-point alignment of these two images through multipoint surface registration. The distance between any two points is then represented using a colorimetric surface contour map. […] The color intensity is proportional to the amount of distance measured between images with darker blue color indicating greater distance from the pre-injection image. Out of range measurements (distances greater than 6 mm) are depicted in white. Bleb measurements of volume and height include regions out of range.
These registered pre-/post-injection images were then used to calculate the bleb volume, height, circumference, length, and width for each bleb using proprietary software (Vectra H1 software; Canfield Sciences).

[3] = Linker stability during skin tissue sample preparation (Trodelvy spiked into skin tissue); conditions: 100 μg/mL Trodelvy spiked into skin tissue, protein precipitation, LC-MS/MS
Protocol: Linker stability during skin tissue sample preparation was assessed by spiking 100 μg/mL Trodelvy into skin tissue, followed by protein precipitation and subsequent sample preparation for LC-MS/MS analysis. Free SN-38 was detected at approximately 10% of the total, which may be attributable to residual impurities in Trodelvy and/or linker hydrolysis occurring during the skin tissue processing steps. FIG. 62 provides the ratio of total ADC to total antibody (TADC/TAB) in skin tissue over time. Table 69 depicts the ratio of total ADC to total antibody in skin tissue homogenates, providing an indication of the extent of intact ADC that is remaining in the SC space over time.

[4] = Calculation of drug to antibody ratio (DAR); conditions: for ADC:free Ab / free Ab:ADC: after adjustment factor
Excerpt: The Drug-to-Antibody Ratio (DAR) is a critical parameter in antibody drug conjugate development, representing the average number of drug molecules attached to each antibody molecule.

[5] = Example 4 Study #1: bleb after 20 mL SC
[6] = Example 4 Study #2: bleb after 20 mL SC

Substance: Sacituzumab govitecan [Trodelvy]
- Height (mm) (Mean ± SEM) [1, 5]: 10.8 ± 0.6 mm
- Volume (cc) (Mean ± SEM) [1, 5]: 65.5 ± 3.6 cc
- Height (mm) (Mean ± SEM) [1, 6]: 10.8 ± 0.6 mm
- Volume (cc) (Mean ± SEM) [1, 6]: 65.5 ± 3.6 cc
- Post-injection bleb Area, caliper (Mean ± SEM) ([1]; minipig, 10 mL SC by HVAI, Trodelvy (ADC) ± rHuPH20 2000 U/mL, T0, n=3, Examples 1, 2, 5): 25.4 ± 0.5
- Post-injection bleb Volume, caliper (Mean ± SEM) ([1]; minipig, 10 mL SC by HVAI, Trodelvy (ADC) ± rHuPH20 2000 U/mL, T0, n=3, Examples 1, 2, 5 (FIG. 3: mL)): 44.3 ± 4.0
- Post-injection bleb Height, caliper (Mean ± SEM) ([1]; minipig, 10 mL SC by HVAI, Trodelvy (ADC) ± rHuPH20 2000 U/mL, T0, n=3, Examples 1, 2, 5 (FIG. 5: mm)): 8.7 ± 0.7
- Bleb Area (cm^2), 3D imaging (Mean ± SEM) [2]: 30.5 ± 2.9 cm^2
- Bleb Height (mm), 3D imaging (Mean ± SEM) [2]: 7.6 ± 1.2 mm
- Bleb Volume (mL), 3D imaging (Mean ± SEM) [2]: 8.1 ± 0.7 mL
- Free SN-38 detected, % of the total [3]: approximately 10%
- % DAR remaining (which may be ~ADC/ total Ab) ([4]; Day 1): 76.2%
- % DAR remaining after adjustment factor to allow for variability (line without head) ([4]; Day 1): 68.6%
- ADC:free Ab ([4]; Day 1): 218.2%
- free Ab:ADC ([4]; Day 1): 45.8%
- % DAR remaining (which may be ~ADC/ total Ab) ([4]; Day 7): 42.9%
- % DAR remaining after adjustment factor to allow for variability (line without head) ([4]; Day 7): 34.3%
- ADC:free Ab ([4]; Day 7): 52.2%
- free Ab:ADC ([4]; Day 7): 191.7%
- % DAR remaining (which may be ~ADC/ total Ab) ([4]; Day 14): 31.0%
- % DAR remaining after adjustment factor to allow for variability (line without head) ([4]; Day 14): 24.8%
- ADC:free Ab ([4]; Day 14): 32.9%
- free Ab:ADC ([4]; Day 14): 303.8%
- % DAR remaining (which may be ~ADC/ total Ab) ([4]; Day 21): 23.8%
- % DAR remaining after adjustment factor to allow for variability (line without head) ([4]; Day 21): 19.0%
- ADC:free Ab ([4]; Day 21): 23.5%
- free Ab:ADC ([4]; Day 21): 425.0%
